Measured values from US20190276511A1 (BIONTECH RNA PHARMACEUTICALS, published 2019).
Read-outs that look alike come from different tables or passages of the source. Values belong to the binder of their own block, whether it stands above or below them.

Tests used:
[1] = biological target: T1, OX40-Fc (human, UniProt P43489 29-214); experiment: ELISA, coated receptor-Fc
T1 construct: extracellular domain; hinge included for covalent assembly; also called OX40 receptor-Fc fusion protein; not shown: human Fc gamma 1 region including the hinge region
T1 sequence (looked up): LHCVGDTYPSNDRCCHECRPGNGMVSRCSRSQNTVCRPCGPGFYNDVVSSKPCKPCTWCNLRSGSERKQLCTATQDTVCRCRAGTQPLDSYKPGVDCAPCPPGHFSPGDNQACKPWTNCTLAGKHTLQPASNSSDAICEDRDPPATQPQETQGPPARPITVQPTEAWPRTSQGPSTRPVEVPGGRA
Description: (§1) Receptor binding of the Duokines was analyzed by ELISA using fusion proteins of the extracellular region of CD40, CD27, 4-1BB and OX40, respectively, with the human Fcγ1 region including the hinge region for covalent assembly (CD40-Fc, CD27-Fc, 4-1BB-Fc, OX40-Fc). Receptor-Fc fusion proteins (200 ng/well) were coated overnight at 4° C. and remaining binding sites were blocked with PBS, 2% skimmed milk powder (2% MPBS).

[2] = biological target: T2, 4-1BB-Fc (human, UniProt Q07011 24-186); experiment: ELISA, coated receptor-Fc
T2 construct: extracellular domain; hinge included for covalent assembly; also called 4-1BB receptor-Fc fusion protein; not shown: human Fc gamma 1 region including the hinge region
Description: as §1

[3] = biological target: T3, CD27-Fc (human, UniProt P26842 20-191); experiment: ELISA, coated receptor-Fc
T3 construct: extracellular domain; hinge included for covalent assembly; also called CD27 receptor-Fc fusion protein; not shown: human Fc gamma 1 region including the hinge region
T3 sequence (looked up): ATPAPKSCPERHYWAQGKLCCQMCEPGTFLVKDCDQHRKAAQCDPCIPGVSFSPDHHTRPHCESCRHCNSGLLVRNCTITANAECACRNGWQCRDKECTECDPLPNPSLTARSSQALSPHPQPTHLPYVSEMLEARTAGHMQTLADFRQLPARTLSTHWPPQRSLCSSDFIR

[4] = biological target: T4, CD40-Fc (human, UniProt P25942 21-193); experiment: ELISA, coated receptor-Fc
T4 construct: extracellular domain; hinge included for covalent assembly; also called CD40 receptor-Fc fusion protein; not shown: human Fc gamma 1 region including the hinge region
T4 sequence (P25942 21-193 limits assumed): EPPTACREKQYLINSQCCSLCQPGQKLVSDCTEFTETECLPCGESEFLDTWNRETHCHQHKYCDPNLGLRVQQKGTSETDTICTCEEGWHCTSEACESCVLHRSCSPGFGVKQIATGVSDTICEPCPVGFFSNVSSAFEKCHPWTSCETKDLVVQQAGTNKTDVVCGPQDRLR

[5] = biological target: T5, 4-1BB receptor on cells (human, UniProt Q07011 24-255); experiment: cell-based or functional assay
T5 sequence (Q07011 24-255): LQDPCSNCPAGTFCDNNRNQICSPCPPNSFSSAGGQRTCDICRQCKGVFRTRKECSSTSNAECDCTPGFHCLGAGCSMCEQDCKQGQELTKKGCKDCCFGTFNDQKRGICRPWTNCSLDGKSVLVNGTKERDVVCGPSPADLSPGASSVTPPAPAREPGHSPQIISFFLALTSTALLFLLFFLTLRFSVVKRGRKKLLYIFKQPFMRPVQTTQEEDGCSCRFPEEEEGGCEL

[6] = biological target: T6, OX40 receptor on cells (human, UniProt P43489 29-277); experiment: cell-based or functional assay
T6 sequence (looked up): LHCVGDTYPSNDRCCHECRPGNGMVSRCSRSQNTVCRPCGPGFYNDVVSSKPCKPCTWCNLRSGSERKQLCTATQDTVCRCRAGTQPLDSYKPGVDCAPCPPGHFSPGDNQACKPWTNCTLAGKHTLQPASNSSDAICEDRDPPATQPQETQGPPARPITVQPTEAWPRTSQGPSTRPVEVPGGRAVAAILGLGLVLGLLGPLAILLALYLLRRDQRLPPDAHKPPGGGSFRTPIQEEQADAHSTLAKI

[7] = biological target: T3, CD27-Fc; experiment: ELISA, coated receptor-Fc; remark: listed apart in the source
Description: as §1

[8] = biological target: T1, OX40-Fc; experiment: ELISA, coated receptor-Fc; remark: listed apart in the source
[9] = biological target: T2, 4-1BB-Fc; experiment: ELISA, coated receptor-Fc; remark: listed apart in the source
Description: as §1, with “of the single-chain Duokines was” for “of the Duokines was”, “(2% MPBS). […] The interactions between scDuokine and receptor were dose-dependent with EC₅₀ values in the low nanomolar ranges (FIG. 11 AB, Tab. 2).” for “(2% MPBS).”

[10] = biological target: T4, CD40-Fc; experiment: ELISA, coated receptor-Fc; remark: listed apart in the source
Description: as §1, with “of the single-chain Duokines was” for “of the Duokines was”, “(2% MPBS). […] The interactions between scDuokine and receptor were dose-dependent with EC₅₀ values in the low nanomolar ranges (FIG. 11 AB, Tab. 2).” for “(2% MPBS).”

[11] = biological target: T5, 4-1BB receptor on cells; experiment: cell-based or functional assay; remark: listed apart in the source
[12] = biological target: T7, CD40 receptor on cells (human, UniProt P25942 21-277); experiment: cell-based or functional assay
T7 sequence (P25942 21-277): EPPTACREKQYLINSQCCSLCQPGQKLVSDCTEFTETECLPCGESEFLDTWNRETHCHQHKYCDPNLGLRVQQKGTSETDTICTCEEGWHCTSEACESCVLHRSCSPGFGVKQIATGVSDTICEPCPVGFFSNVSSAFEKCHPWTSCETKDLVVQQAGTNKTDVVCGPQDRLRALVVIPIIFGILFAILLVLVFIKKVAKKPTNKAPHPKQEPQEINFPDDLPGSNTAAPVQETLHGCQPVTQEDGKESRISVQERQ

[13] = biological target: T3, CD27-Fc; experiment: ELISA, coated receptor-Fc; remark: listed apart in the source
Description: as §1, with “of the single-chain Duokines was” for “of the Duokines was”, “(2% MPBS). […] The interactions between scDuokine and receptor were dose-dependent with EC₅₀ values in the low nanomolar ranges (FIG. 11 AB, Tab. 2).” for “(2% MPBS).”

[14] = biological target: T4, CD40-Fc; experiment: ELISA, coated receptor-Fc; remark: listed apart in the source
Description: as §1

[15] = biological target: T7, CD40 receptor on cells; experiment: cell-based or functional assay; remark: listed apart in the source

B2: CD27L-4-1BBL (ligand)
chain: SLGWDVAELQLNHTGPQQDPRLYWQGGPALGRSFLHGPELDKGQLRIHRDGIYMVHIQVTLAICSSTTASRHHPTTLAVGICSPASRSISLLRLSFHQGCTIASQRLTPLARGDTLCTNLTGTLLPSRNTDETFFGVQWVRPGGGGSGGGGSGGGGSGGGGSREGPELSPDDPAGLLDLRQGMFAQLVAQNVLLIDGPLSWYSDPGLAGVSLTGGLSYKEDTKELVVAKAGVYYVFFQLELRRVVAGEGSGSVSLALHLQPLRSAAGAAALALTVDLPPASSEARNSAFGFQGRLLHLSAGQRLGVHLHTEARARHAWQLTQGATVLGLFRVTPEIPAGLPSPRSE
notes: Duokine from HEK293, FLAG-purified; VH leader left out; homotrimer by SEC; also called Duokine CD27L-4-1BBL; not shown: N-terminal FLAG tag
EC50 [7]: 6.34 nM
EC50 [2]: 1.41 nM
binding result [8]: no binding (tested: 100 nM (FIG. 4))
binding result [4]: no binding (tested: 100 nM (FIG. 4))
Receptor activation (EC50, nM) [5]: 1.44 nM

B4: scCD27L-sc4-1BBL (ligand)
chain: SLGWDVAELQLNHTGPQQDPRLYWQGGPALGRSFLHGPELDKGQLRIHRDGIYMVHIQVTLAICSSTTASRHHPTTLAVGICSPASRSISLLRLSFHQGCTIASQRLTPLARGDTLCTNLTGTLLPSRNTDETFFGVQWVRPGGGSGGGSLGWDVAELQLNHTGPQQDPRLYWQGGPALGRSFLHGPELDKGQLRIHRDGIYMVHIQVTLAICSSTTASRHHPTTLAVGICSPASRSISLLRLSFHQGCTIASQRLTPLARGDTLCTNLTGTLLPSRNTDETFFGVQWVRPGGGSGGGSLGWDVAELQLNHTGPQQDPRLYWQGGPALGRSFLHGPELDKGQLRIHRDGIYMVHIQVTLAICSSTTASRHHPTTLAVGICSPASRSISLLRLSFHQGCTIASQRLTPLARGDTLCTNLTGTLLPSRNTDETFFGVQWVRPGGGGSGGGTGGGGSREGPELSPDDPAGLLDLRQGMFAQLVAQNVLLIDGPLSWYSDPGLAGVSLTGGLSYKEDTKELVVAKAGVYYVFFQLELRRVVAGEGSGSVSLALHLQPLRSAAGAAALALTVDLPPASSEARNSAFGFQGRLLHLSAGQRLGVHLHTEARARHAWQLTQGATVLGLFRVTPEIPAGLPSPRSEGGGGSGGGGSGGGGSREGPELSPDDPAGLLDLRQGMFAQLVAQNVLLIDGPLSWYSDPGLAGVSLTGGLSYKEDTKELVVAKAGVYYVFFQLELRRVVAGEGSGSVSLALHLQPLRSAAGAAALALTVDLPPASSEARNSAFGFQGRLLHLSAGQRLGVHLHTEARARHAWQLTQGATVLGLFRVTPEIPAGLPSPRSEGGGGSGGGGSGGGGSREGPELSPDDPAGLLDLRQGMFAQLVAQNVLLIDGPLSWYSDPGLAGVSLTGGLSYKEDTKELVVAKAGVYYVFFQLELRRVVAGEGSGSVSLALHLQPLRSAAGAAALALTVDLPPASSEARNSAFGFQGRLLHLSAGQRLGVHLHTEARARHAWQLTQGATVLGLFRVTPEIPAGLPSPRSE
notes: scDuokine from HEK293; VH leader left out; also called single-chain Duokine scCD27L-sc4-1BBL; not shown: N-terminal FLAG tag
EC50 [13]: 9.23 nM
EC50 [9]: 4.57 nM
binding result [8]: no binding (tested: 100 nM (FIG. 10))
binding result [4]: no binding (tested: 100 nM (FIG. 10))
Receptor activation (EC50, nM) [11]: 1.5 nM

B5: CD40L-4-1BBL (ligand)
chain: GDQNPQIAAHVISEASSKTTSVLQWAEKGYYTMSNNLVTLENGKQLTVKRQGLYYIYAQVTFCSNREASSQAPFIASLCLKSPGRFERILLRAANTHSSAKPCGQQSIHLGGVFELQPGASVFVNVTDPSQVSHGTGFTSFGLLKLGGGGSGGGGSGGGGSGGGGSREGPELSPDDPAGLLDLRQGMFAQLVAQNVLLIDGPLSWYSDPGLAGVSLTGGLSYKEDTKELVVAKAGVYYVFFQLELRRVVAGEGSGSVSLALHLQPLRSAAGAAALALTVDLPPASSEARNSAFGFQGRLLHLSAGQRLGVHLHTEARARHAWQLTQGATVLGLFRVTPEIPAGLPSPRSE
notes: Duokine from HEK293, FLAG-purified; VH leader left out; homotrimer by SEC; also called Duokine CD40L-4-1BBL; not shown: N-terminal FLAG tag
EC50 [2]: 2.11 nM
EC50 [14]: 10.1 nM
binding result [3]: no binding (tested: 100 nM (FIG. 4))
binding result [8]: no binding (tested: 100 nM (FIG. 4))
Receptor activation (EC50, nM) [5]: 0.45 nM
Receptor activation (EC50, nM) [15]: 3.01 nM

The remaining lines, values ahead:

EC50 [1]: 7.17 nM
EC50 [2]: 1.26 nM
binding result [3]: no binding (tested: 100 nM (FIG. 4))
binding result [4]: no binding (tested: 100 nM (FIG. 4))
Receptor activation (EC50, nM) [5]: 2.75 nM
Receptor activation (EC50, nM) [6]: 0.85 nM
B1: OX40L-4-1BBL (ligand)
chain: QVSHRYPRIQSIKVQFTEYKKEKGFILTSQKEDEIMKVQNNSVIINCDGFYLISLKGYFSQEVNISLHYQKDEEPLFQLKKVRSVNSLMVASLTYKDKVYLNVTTDNTSLDDFHVNGGELILIHQNPGEFCVLGGGGSGGGGSGGGGSGGGGSREGPELSPDDPAGLLDLRQGMFAQLVAQNVLLIDGPLSWYSDPGLAGVSLTGGLSYKEDTKELVVAKAGVYYVFFQLELRRVVAGEGSGSVSLALHLQPLRSAAGAAALALTVDLPPASSEARNSAFGFQGRLLHLSAGQRLGVHLHTEARARHAWQLTQGATVLGLFRVTPEIPAGLPSPRSE
notes: Duokine from HEK293, FLAG-purified; VH leader left out; homotrimer by SEC; also called Duokine OX40L-4-1BBL; not shown: N-terminal FLAG tag

EC50 [9]: 3.17 nM
EC50 [10]: 7.02 nM
binding result [3]: no binding (tested: 100 nM (FIG. 10))
binding result [8]: no binding (tested: 100 nM (FIG. 10))
Receptor activation (EC50, nM) [11]: 0.26 nM
Receptor activation (EC50, nM) [12]: 5.23 nM
B3: scCD40L-sc4-1BBL (ligand)
chain: GDQNPQIAAHVISEASSKTTSVLQWAEKGYYTMSNNLVTLENGKQLTVKRQGLYYIYAQVTFCSNREASSQAPFIASLCLKSPGRFERILLRAANTHSSAKPCGQQSIHLGGVFELQPGASVFVNVTDPSQVSHGTGFTSFGLLKLGGGSGGGGDQNPQIAAHVISEASSKTTSVLQWAEKGYYTMSNNLVTLENGKQLTVKRQGLYYIYAQVTFCSNREASSQAPFIASLCLKSPGRFERILLRAANTHSSAKPCGQQSIHLGGVFELQPGASVFVNVTDPSQVSHGTGFTSFGLLKLGGGSGGGGDQNPQIAAHVISEASSKTTSVLQWAEKGYYTMSNNLVTLENGKQLTVKRQGLYYIYAQVTFCSNREASSQAPFIASLCLKSPGRFERILLRAANTHSSAKPCGQQSIHLGGVFELQPGASVFVNVTDPSQVSHGTGFTSFGLLKLGGGGSGGGTGGGGSREGPELSPDDPAGLLDLRQGMFAQLVAQNVLLIDGPLSWYSDPGLAGVSLTGGLSYKEDTKELVVAKAGVYYVFFQLELRRVVAGEGSGSVSLALHLQPLRSAAGAAALALTVDLPPASSEARNSAFGFQGRLLHLSAGQRLGVHLHTEARARHAWQLTQGATVLGLFRVTPEIPAGLPSPRSEGGGGSGGGGSGGGGSREGPELSPDDPAGLLDLRQGMFAQLVAQNVLLIDGPLSWYSDPGLAGVSLTGGLSYKEDTKELVVAKAGVYYVFFQLELRRVVAGEGSGSVSLALHLQPLRSAAGAAALALTVDLPPASSEARNSAFGFQGRLLHLSAGQRLGVHLHTEARARHAWQLTQGATVLGLFRVTPEIPAGLPSPRSEGGGGSGGGGSGGGGSREGPELSPDDPAGLLDLRQGMFAQLVAQNVLLIDGPLSWYSDPGLAGVSLTGGLSYKEDTKELVVAKAGVYYVFFQLELRRVVAGEGSGSVSLALHLQPLRSAAGAAALALTVDLPPASSEARNSAFGFQGRLLHLSAGQRLGVHLHTEARARHAWQLTQGATVLGLFRVTPEIPAGLPSPRSE
notes: scDuokine from HEK293; VH leader left out; also called single-chain Duokine scCD40L-sc4-1BBL; not shown: N-terminal FLAG tag
